# Patent US20240400708A1
# Substitutions are numbered along the chain they refer to. Names may count otherwise.
# B1: feline IgG1a mutant ID No. 370: S252Y, S434R, Q311H (antibody, part only; not given: variable domains and light chain, not shown: another chain or arm of the molecule)
# constant: ASTTAPSVFPLAPSCGTTSGATVALACLVLGYFPEPVTVSWNSGALTSGVHTFPAVLQASGLYSLSSMVTVPSSRWLSDTFTCNVAHPPSNTKVDKTVRKTDHPPGPKPCDCPKCPPPEMLGGPSIFIFPPKPKDTLYISRTPEVTCLVVDLGPDDSDVQITWFVDNTQVYTAKTSPREEQFNSTYRVVSVLPILHHDWLKGKEFKCKVNSKSLPSPIERTISKAKGQPHEPQVYVLPPAQEELSRNKVSVTCLIKSFHPPDIAVEWEITGQPEPENNYRTTPPQLDSDGTYFVYSKLSVDRSHWQRGNTYTCSVSHEALHRHHTQKSLTQSPGK
# B2: feline IgG1a Fc mutant S428Y, S252Y (antibody, part only; not given: Variable domains, not shown: another chain or arm of the molecule; small tags and cut ends)
# constant: B1 constant with H197Q, S316Y, R322S
# B3: feline IgG1a Fc mutant Q311M, S428L (antibody, part only; not given: Variable domains, not shown: another chain or arm of the molecule; small tags and cut ends)
# constant: B1 constant with Y138S, H197M, S316L, R322S
# B4: feline IgG1a Fc mutant S428M, S252F (antibody, part only; not given: Variable domains, not shown: another chain or arm of the molecule; small tags and cut ends)
# constant: B1 constant with Y138F, H197Q, S316M, R322S
# B5: feline IgG1a mutant ID No. 376: S252Y, S434R, T250Q (antibody, part only; not given: Variable domains, not shown: another chain or arm of the molecule)
# constant: B1 constant with T136Q, H197Q
# B6: feline IgG1a Fc mutant Q311Y, S428Y (antibody, part only; not given: Variable domains, not shown: another chain or arm of the molecule)
# constant: B1 constant with Y138S, H197Y, S316Y, R322S
# B7: feline IgG1a Fc mutant S428M, S434R (antibody, part only; not given: variable domains, not shown: another chain or arm of the molecule; small tags and cut ends)
# constant: B1 constant with Y138S, H197Q, S316M
# B8: feline IgG1a Fc mutant S428L, S434H (antibody, part only; not given: Variable domains, not shown: another chain or arm of the molecule; small tags and cut ends)
# constant: B1 constant with Y138S, H197Q, S316L, R322H
# B9: feline IgG1a Fc mutant S428Y, S434H (antibody, part only; not given: Variable domains, not shown: another chain or arm of the molecule; small tags and cut ends)
# constant: B1 constant with Y138S, H197Q, S316Y, R322H
# B10: feline IgG1a Fc mutant S428L, S434R (antibody, part only; not given: variable domains and light chain, not shown: another chain or arm of the molecule; small tags and cut ends)
# constant: B1 constant with Y138S, H197Q, S316L
# B11: feline IgG1a Fc mutant S428Y, S252W (antibody, part only; not given: Variable domains, not shown: another chain or arm of the molecule)
# constant: B1 constant with Y138W, H197Q, S316Y, R322S
# B12: feline IgG1a Fc mutant Q311M, S428Y (antibody, part only; not given: variable domains, not shown: another chain or arm of the molecule; small tags and cut ends)
# constant: B1 constant with Y138S, H197M, S316Y, R322S
# B13: feline IgG1a Fc mutant S428M, S252Y (antibody, part only; not given: Variable domains, not shown: another chain or arm of the molecule; small tags and cut ends)
# constant: B1 constant with H197Q, S316M, R322S
# B14: feline IgG1a Fc mutant S428Y, S434R (antibody, part only; not given: Variable domains, not shown: another chain or arm of the molecule; small tags and cut ends)
# constant: B1 constant with Y138S, H197Q, S316Y
# B15: feline IgG1a mutant ID No. 377: S252Y, S434R, T256M (antibody, part only; not given: Variable domains, not shown: another chain or arm of the molecule)
# constant: B1 constant with T142M, H197Q
# B16: feline IgG1a mutant ID No. 374: S252Y, S434R, Q311Y (antibody, part only; not given: Variable domains, not shown: another chain or arm of the molecule)
# constant: B1 constant with H197Y
# B17: feline IgG1a Fc mutant Q311K, S428L (antibody, part only; not given: variable domains and light chain, not shown: another chain or arm of the molecule; small tags and cut ends)
# constant: B1 constant with Y138S, H197K, S316L, R322S
# B18: feline IgG1a Fc mutant S428Y, S252F (antibody, part only; not given: Variable domains, not shown: another chain or arm of the molecule)
# constant: B1 constant with Y138F, H197Q, S316Y, R322S
# B19: feline IgG1a Fc mutant Q311W, S428L (antibody, part only; not given: Variable domains, not shown: another chain or arm of the molecule; small tags and cut ends)
# constant: B1 constant with Y138S, H197W, S316L, R322S
# B20: feline IgG1a Fc mutant S428L, S252F (antibody, part only; not given: Variable domains, not shown: another chain or arm of the molecule; small tags and cut ends)
# constant: B1 constant with Y138F, H197Q, S316L, R322S
# B21: feline IgG1a mutant ID No. 371: S252Y, S434R, Q311K (antibody, part only; not given: Variable domains, not shown: another chain or arm of the molecule)
# constant: B1 constant with H197K
# B22: feline IgG1a Fc mutant S428M, S434Y (antibody, part only; not given: Variable domains, not shown: another chain or arm of the molecule; small tags and cut ends)
# constant: B1 constant with Y138S, H197Q, S316M, R322Y
# B23: feline IgG1a Fc mutant S428L, S434F (antibody, part only; not given: Variable domains, not shown: another chain or arm of the molecule; small tags and cut ends)
# constant: B1 constant with Y138S, H197Q, S316L, R322F
# B24: feline IgG1a Fc mutant S428L, S252W (antibody, part only; not given: Variable domains, not shown: another chain or arm of the molecule; small tags and cut ends)
# constant: B1 constant with Y138W, H197Q, S316L, R322S
# B25: feline IgG1a mutant ID No. 373: S252Y, S434R, Q311R (antibody, part only; not given: Variable domains, not shown: another chain or arm of the molecule)
# constant: B1 constant with H197R
# B26: feline IgG1a Fc mutant Q311R, S428L (antibody, part only; not given: Variable domains, not shown: another chain or arm of the molecule; small tags and cut ends)
# constant: B1 constant with Y138S, H197R, S316L, R322S
# B27: feline IgG1a Fc mutant Q311H, S428Y (antibody, part only; not given: Variable domains, not shown: another chain or arm of the molecule)
# constant: B1 constant with Y138S, S316Y, R322S
# B28: feline IgG1a Fc mutant S428L, S252H (antibody, part only; not given: variable domains and light chain, not shown: another chain or arm of the molecule; small tags and cut ends)
# constant: B1 constant with Y138H, H197Q, S316L, R322S
# B29: feline IgG1a Fc mutant S428M, S252W (antibody, part only; not given: variable domains and light chain, not shown: another chain or arm of the molecule; small tags and cut ends)
# constant: B1 constant with Y138W, H197Q, S316M, R322S
# B30: feline IgG1a Fc mutant S428L, S434W (antibody, part only; not given: Variable domains, not shown: another chain or arm of the molecule; small tags and cut ends)
# constant: B1 constant with Y138S, H197Q, S316L, R322W
# B31: feline IgG1a Fc mutant Q311H, S428L (antibody, part only; not given: Variable domains, not shown: another chain or arm of the molecule; small tags and cut ends)
# constant: B1 constant with Y138S, S316L, R322S
# B32: feline IgG1a Fc mutant S428Y, S252H (antibody, part only; not given: Variable domains, not shown: another chain or arm of the molecule; small tags and cut ends)
# constant: B1 constant with Y138H, H197Q, S316Y, R322S
# B33: feline IgG1a Fc mutant Q311K, S428M (antibody, part only; not given: Variable domains, not shown: another chain or arm of the molecule; small tags and cut ends)
# constant: B1 constant with Y138S, H197K, S316M, R322S
# B34: feline IgG1a Fc mutant Q311H, S428M (antibody, part only; not given: Variable domains, not shown: another chain or arm of the molecule; small tags and cut ends)
# constant: B1 constant with Y138S, S316M, R322S
# B35: feline IgG1a Fc mutant S428M, S252H (antibody, part only; not given: Variable domains, not shown: another chain or arm of the molecule; small tags and cut ends)
# constant: B1 constant with Y138H, H197Q, S316M, R322S
# B36: feline IgG1a Fc mutant Q311R, S428Y (antibody, part only; not given: Variable domains, not shown: another chain or arm of the molecule; small tags and cut ends)
# constant: B1 constant with Y138S, H197R, S316Y, R322S
# B37: feline IgG1a Fc mutant Q311L, S428L (antibody, part only; not given: Variable domains, not shown: another chain or arm of the molecule; small tags and cut ends)
# constant: B1 constant with Y138S, H197L, S316L, R322S
# B38: feline IgG1a mutant ID No. 378: S252Y, S434R, T403R (antibody, part only; not given: Variable domains, not shown: another chain or arm of the molecule)
# constant: B1 constant with H197Q, T291R
# B39: feline IgG1a Fc mutant S428L, S252Y (antibody, part only; not given: Variable domains, not shown: another chain or arm of the molecule)
# constant: B1 constant with H197Q, S316L, R322S
# B40: feline IgG1a Fc mutant Q311W, S428M (antibody, part only; not given: Variable domains, not shown: another chain or arm of the molecule; small tags and cut ends)
# constant: B1 constant with Y138S, H197W, S316M, R322S
# B41: feline IgG1a Fc mutant S428M, S434H (antibody, part only; not given: Variable domains, not shown: another chain or arm of the molecule; small tags and cut ends)
# constant: B1 constant with Y138S, H197Q, S316M, R322H
# B42: feline IgG1a Fc mutant S428L, S434Y (antibody, part only; not given: Variable domains, not shown: another chain or arm of the molecule; small tags and cut ends)
# constant: B1 constant with Y138S, H197Q, S316L, R322Y
# B43: feline IgG1a Fc mutant Q311L, S428Y (antibody, part only; not given: Variable domains, not shown: another chain or arm of the molecule)
# constant: B1 constant with Y138S, H197L, S316Y, R322S
# B44: feline IgG1a Fc mutant Q311R, S428M (antibody, part only; not given: variable domains and light chain, not shown: another chain or arm of the molecule; small tags and cut ends)
# constant: B1 constant with Y138S, H197R, S316M, R322S
# B45: feline IgG1a Fc mutant Q311W, S428Y (antibody, part only; not given: Variable domains, not shown: another chain or arm of the molecule)
# constant: B1 constant with Y138S, H197W, S316Y, R322S
# B46: feline IgG1a Fc mutant Q311Y, S428M (antibody, part only; not given: Variable domains, not shown: another chain or arm of the molecule; small tags and cut ends)
# constant: B1 constant with Y138S, H197Y, S316M, R322S
# B47: feline IgG1a Fc mutant Q311L, S428M (antibody, part only; not given: Variable domains, not shown: another chain or arm of the molecule; small tags and cut ends)
# constant: B1 constant with Y138S, H197L, S316M, R322S
# B48: feline IgG1a Fc mutant Q311M, S428M (antibody, part only; not given: Variable domains, not shown: another chain or arm of the molecule; small tags and cut ends)
# constant: B1 constant with Y138S, H197M, S316M, R322S
# B49: feline IgG1a mutant ID No. 372: S252Y, S434R, Q311M (antibody, part only; not given: Variable domains, not shown: another chain or arm of the molecule)
# constant: B1 constant with H197M
# B50: feline IgG1a Fc mutant Q311Y, S428L (antibody, part only; not given: Variable domains, not shown: another chain or arm of the molecule; small tags and cut ends)
# constant: B1 constant with Y138S, H197Y, S316L, R322S
# B51: feline IgG1a mutant ID No. 375: S252Y, S434R, S254V (antibody, part only; not given: Variable domains, not shown: another chain or arm of the molecule)
# constant: B1 constant with S140V, H197Q
# How the values were obtained:
# [1] = biological target: feline FcRn complex (FcRn-α subunit and β-microglobulin) (feline); experiment: SPR (Biacore), FcRn on SA chip, pH 6
# [2] = biological target: feline FcRn complex (FcRn-α subunit and β-microglobulin) (feline); experiment: SPR (Biacore), FcRn on SA chip, pH 7.4
# [3] = biological target: Feline FcRn complex (FcRn-alpha subunit and beta-microglobulin) (feline); experiment: SPR (Biacore), feline FcRn captured on SA chip, IgG flowed over, pH 6
# [4] = biological target: Feline FcRn complex (FcRn-alpha subunit and beta-microglobulin) (feline); experiment: SPR (Biacore), feline FcRn captured on SA chip, IgG flowed over, pH 7.4
Binder,Kd [3] [nM],further results
B1,,Kd [1]: 0.974 nM; Kd [2]: 31.3 nM
B2,8.58,
B3,6.44,
B4,5.9,
B5,,Kd [1]: 0.394 nM; Kd [2]: 24.6 nM
B6,5.57,
B7,5.46,
B8,2.58,Kd [4]: 43.9 nM
B9,2.27,
B10,4.66,
B11,2.95,
B12,5.72,
B13,5.12,Kd [4]: 124 nM
B14,3.85,
B15,,Kd [1]: 1.55 nM; Kd [2]: 25.6 nM
B16,,Kd [1]: 0.715 nM; Kd [2]: 30.3 nM
B17,5.62,
B18,6.62,
B19,8.08,
B20,6.52,
B21,,Kd [1]: 0.488 nM; Kd [2]: 10.7 nM
B22,0.888,Kd [4]: 25.2 nM
B23,1.39,Kd [4]: 46.4 nM
B24,6.14,
B25,,Kd [1]: 0.365 nM; Kd [2]: 12.9 nM
B26,5.47,

Binder,Kd [3] [nM],further results
B27,6.92,
B28,5.94,
B29,4.65,
B30,1.02,Kd [4]: 41.8 nM
B31,7.19,
B32,6.41,
B33,6.16,
B34,6.58,
B35,6.83,
B36,4.81,
B37,6.03,
B38,,Kd [1]: 0.859 nM; Kd [2]: 25.8 nM
B39,4.88,
B40,6.51,
B41,3.09,
B42,0.933,Kd [4]: 22.2 nM
B43,4.74,
B44,5.28,
B45,6.35,
B46,5.73,
B47,5.7,
B48,5.66,
B49,,Kd [1]: 0.443 nM; Kd [2]: 21.9 nM
B50,5.72,
B51,,Kd [1]: 0.551 nM; Kd [2]: 34.1 nM
